In this assay the target is amyloid β (1-28) (UniProt P05067). The experiment in a line: trapping on beads in buffer, eluate by MALDI-TOF MS; ratio of detection limits.
Sequence of UniProt P05067 (P05067 672-699 limits assumed): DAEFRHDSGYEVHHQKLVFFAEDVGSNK

For 6E10 F(ab′)-PEG24 beads (Fab), the fold sensitivity against the IgG-protein G beads of each kind came to 5 times.

For the origin of these results see patent publication US20220017583A1.
